According to patent publication US10597433B2, “Peptides and combination of peptides for use in immunotherapy against small cell lung cancer and other cancers” (Immatics Biotechnologies GmbH, priority 2015, dated 2020):

Target: HLA-A*02:01 (Homo sapiens, UniProt P04439, D140Y/D185E/D98H/E176V/E277Q/G131W/G231S/I119V/I121R/I166T/I218V/L300P/L318F/N151K/N90K/P208A/P217A/Q86G/Q94H/R138H/R169H/T345S)
Assay: MHC binding assay: UV-ligand exchange with ELISA detection of β2m of stabilized MHC complexes
Conditions: binding to HLA-A*02:01
Excerpt: Candidate peptides for T cell based therapies according to the present invention were further tested for their MHC binding capacity (affinity). The individual peptide-MHC complexes were produced by UV-ligand exchange, where a UV-sensitive peptide is cleaved upon UV-irradiation, and exchanged with the peptide of interest as analyzed. Only peptide candidates that can effectively bind and stabilize the peptide-receptive MHC molecules prevent dissociation of the MHC complexes. To determine the yield of the exchange reaction, an ELISA was performed based on the detection of the light chain (β2m) of stabilized MHC complexes. The assay was performed as generally described in Rodenko et al. (Rodenko et al., 2006).
96 well MAXISorp plates (NUNC) were coated over night with 2 μg/ml streptavidin in PBS at room temperature, washed 4× and blocked for 1 h at 37° C. in 2% BSA containing blocking buffer. Refolded HLA-A*02:01/MLA-001 monomers served as standards, covering the range of 15-500 ng/ml. Peptide-MHC monomers of the UV-exchange reaction were diluted 100 fold in blocking buffer. Samples were incubated for 1 h at 37° C., washed four times, incubated with 2 μg/ml HRP conjugated anti-β2m for 1 h at 37° C., washed again and detected with TMB solution that is stopped with […]. Absorption was measured at 450 nm. Candidate peptides that show a high exchange yield (preferably higher than 50%, most preferred higher than 75%) are generally preferred for a generation and production of antibodies or fragments thereof, and/or T cell receptors or fragments thereof, as they show sufficient avidity to the MHC molecules and prevent dissociation of the MHC complexes.

67 (MLYDIVPVV; listed as Homo sapiens) [compound 67]
Peptide exchange (MHC class I binding score, peptide exchange yield): +++ (≥50 = +++)

68 (FLFPVYPLI; listed as Homo sapiens) [compound 68]
Peptide exchange (MHC class I binding score, peptide exchange yield): +++ (≥50 = +++)

69 (KLFDRSVDL; listed as Homo sapiens) [compound 69]
Peptide exchange (MHC class I binding score, peptide exchange yield): ++ (≥20% = ++)

70 (TLLWKLVEV; listed as Homo sapiens) [compound 70]
Peptide exchange (MHC class I binding score, peptide exchange yield): ++ (≥20% = ++)

71 (FIFEQVQNV; listed as Homo sapiens) [compound 71]
Peptide exchange (MHC class I binding score, peptide exchange yield): +++ (≥50 = +++)

72 (KAIGSLKEV; listed as Homo sapiens) [compound 72]
Peptide exchange (MHC class I binding score, peptide exchange yield): +++ (≥50 = +++)

73 (SLSSYTPDV; listed as Homo sapiens) [compound 73]
Peptide exchange (MHC class I binding score, peptide exchange yield): +++ (≥50 = +++)

74 (FLDSLSPSV; listed as Homo sapiens) [compound 74]
Peptide exchange (MHC class I binding score, peptide exchange yield): +++ (≥50 = +++)

75 (SLDLHVPSL; listed as Homo sapiens) [compound 75]
Peptide exchange (MHC class I binding score, peptide exchange yield): +++ (≥50 = +++)

77 (AIIDGKIFCV; listed as Homo sapiens) [compound 77]
Peptide exchange (MHC class I binding score, peptide exchange yield): +++ (≥50 = +++)

78 (RIIDPEDLKALL; listed as Homo sapiens) [compound 78]
Peptide exchange (MHC class I binding score, peptide exchange yield): ++++ (≥75% = ++++)

79 (RLLEPAQVQQL; listed as Homo sapiens) [compound 79]
Peptide exchange (MHC class I binding score, peptide exchange yield): +++ (≥50 = +++)

81 (LLAEIGAVTLV; listed as Homo sapiens) [compound 81]
Peptide exchange (MHC class I binding score, peptide exchange yield): +++ (≥50 = +++)

83 (KLLEIDIDGV; listed as Homo sapiens) [compound 83]
Peptide exchange (MHC class I binding score, peptide exchange yield): +++ (≥50 = +++)

84 (KMFENEFLL; listed as Homo sapiens) [compound 84]
Peptide exchange (MHC class I binding score, peptide exchange yield): +++ (≥50 = +++)

85 (FAYDGKDYLTL; listed as Homo sapiens) [compound 85]
Peptide exchange (MHC class I binding score, peptide exchange yield): +++ (≥50 = +++)

86 (KVIDYVPGI; listed as Homo sapiens) [compound 86]
Peptide exchange (MHC class I binding score, peptide exchange yield): +++ (≥50 = +++)

87 (LLQNNLPAV; listed as Homo sapiens) [compound 87]
Peptide exchange (MHC class I binding score, peptide exchange yield): ++++ (≥75% = ++++)

88 (TLHRETFYL; listed as Homo sapiens) [compound 88]
Peptide exchange (MHC class I binding score, peptide exchange yield): ++++ (≥75% = ++++)

89 (IQHDLIFSL; listed as Homo sapiens) [compound 89]
Peptide exchange (MHC class I binding score, peptide exchange yield): +++ (≥50 = +++)

90 (TLVDNISTMAL; listed as Homo sapiens) [compound 90]
Peptide exchange (MHC class I binding score, peptide exchange yield): +++ (≥50 = +++)

91 (KLQDGVHII; listed as Homo sapiens) [compound 91]
Peptide exchange (MHC class I binding score, peptide exchange yield): +++ (≥50 = +++)

92 (YLQDYTDRV; listed as Homo sapiens) [compound 92]
Peptide exchange (MHC class I binding score, peptide exchange yield): +++ (≥50 = +++)

93 (ALRETVVEV; listed as Homo sapiens) [compound 93]
Peptide exchange (MHC class I binding score, peptide exchange yield): +++ (≥50 = +++)

94 (ALFPVAEDISL; listed as Homo sapiens) [compound 94]
Peptide exchange (MHC class I binding score, peptide exchange yield): +++ (≥50 = +++)

95 (ALYSKGILL; listed as Homo sapiens) [compound 95]
Peptide exchange (MHC class I binding score, peptide exchange yield): ++++ (≥75% = ++++)

96 (NLLKLIAEV; listed as Homo sapiens) [compound 96]
Peptide exchange (MHC class I binding score, peptide exchange yield): ++++ (≥75% = ++++)

97 (ALLDGTVFEI; listed as Homo sapiens) [compound 97]
Peptide exchange (MHC class I binding score, peptide exchange yield): +++ (≥50 = +++)

98 (ALVDHLNVGV; listed as Homo sapiens) [compound 98]
Peptide exchange (MHC class I binding score, peptide exchange yield): +++ (≥50 = +++)

99 (QMLEAIKALEV; listed as Homo sapiens) [compound 99]
Peptide exchange (MHC class I binding score, peptide exchange yield): ++++ (≥75% = ++++)

100 (VADPETRTV; listed as Homo sapiens) [compound 100]
Peptide exchange (MHC class I binding score, peptide exchange yield): + (≥10% = +)

101 (AMNSQILEV; listed as Homo sapiens) [compound 101]
Peptide exchange (MHC class I binding score, peptide exchange yield): +++ (≥50 = +++)

102 (ALFARPDLLLL; listed as Homo sapiens) [compound 102]
Peptide exchange (MHC class I binding score, peptide exchange yield): ++++ (≥75% = ++++)

103 (SLLEYQMLV; listed as Homo sapiens) [compound 103]
Peptide exchange (MHC class I binding score, peptide exchange yield): ++++ (≥75% = ++++)

104 (TLIQFTVKL; listed as Homo sapiens) [compound 104]
Peptide exchange (MHC class I binding score, peptide exchange yield): +++ (≥50 = +++)

105 (SMYDKVLML; listed as Homo sapiens) [compound 105]
Peptide exchange (MHC class I binding score, peptide exchange yield): ++++ (≥75% = ++++)

106 (KMPDDVWLV; listed as Homo sapiens) [compound 106]
Peptide exchange (MHC class I binding score, peptide exchange yield): ++++ (≥75% = ++++)

107 (AMYGTKLETI; listed as Homo sapiens) [compound 107]
Peptide exchange (MHC class I binding score, peptide exchange yield): ++++ (≥75% = ++++)

108 (ILLDDQFQPKL; listed as Homo sapiens) [compound 108]
Peptide exchange (MHC class I binding score, peptide exchange yield): ++++ (≥75% = ++++)

109 (SLFERLVVL; listed as Homo sapiens) [compound 109]
Peptide exchange (MHC class I binding score, peptide exchange yield): ++++ (≥75% = ++++)

111 (FLPEAPAEL; listed as Homo sapiens) [compound 111]
Peptide exchange (MHC class I binding score, peptide exchange yield): +++ (≥50 = +++)

112 (LLLPGVIKTV; listed as Homo sapiens) [compound 112]
Peptide exchange (MHC class I binding score, peptide exchange yield): +++ (≥50 = +++)

114 (ALLEPGGVLTI; listed as Homo sapiens) [compound 114]
Peptide exchange (MHC class I binding score, peptide exchange yield): +++ (≥50 = +++)

115 (ALLPSDCLQEA; listed as Homo sapiens) [compound 115]
Peptide exchange (MHC class I binding score, peptide exchange yield): +++ (≥50 = +++)

116 (ALLVRLQEV; listed as Homo sapiens) [compound 116]
Peptide exchange (MHC class I binding score, peptide exchange yield): ++++ (≥75% = ++++)

117 (FLLDSAPLNV; listed as Homo sapiens) [compound 117]
Peptide exchange (MHC class I binding score, peptide exchange yield): ++++ (≥75% = ++++)

118 (KLPSFLANV; listed as Homo sapiens) [compound 118]
Peptide exchange (MHC class I binding score, peptide exchange yield): +++ (≥50 = +++)

120 (SLAADIPRL; listed as Homo sapiens) [compound 120]
Peptide exchange (MHC class I binding score, peptide exchange yield): +++ (≥50 = +++)

121 (YMLEHVITL; listed as Homo sapiens) [compound 121]
Peptide exchange (MHC class I binding score, peptide exchange yield): +++ (≥50 = +++)

122 (SMMPDELLTSL; listed as Homo sapiens) [compound 122]
Peptide exchange (MHC class I binding score, peptide exchange yield): +++ (≥50 = +++)

123 (KLDKNPNQV; listed as Homo sapiens) [compound 123]
Peptide exchange (MHC class I binding score, peptide exchange yield): +++ (≥50 = +++)

124 (SLITDLQTI; listed as Homo sapiens) [compound 124]
Peptide exchange (MHC class I binding score, peptide exchange yield): +++ (≥50 = +++)

125 (LLSEPSLLRTV; listed as Homo sapiens) [compound 125]
Peptide exchange (MHC class I binding score, peptide exchange yield): +++ (≥50 = +++)

126 (AAASLIRLV; listed as Homo sapiens) [compound 126]
Peptide exchange (MHC class I binding score, peptide exchange yield): + (≥10% = +)
